Assay results taken from the Immune Epitope Database (IEDB).

What was measured:
Assay in all cases: IEDB peptide-MHC binding, purified MHC/competitive/radioactivity; filed as Kd, often an IC50 or EC50 that approximates it; ≥ and ≤ were set here for values at or beyond the usual limits of such assays
HLA-A*02:03 = target: HLA-A*02:03
HLA-A*68:01 = target: HLA-A*68:01
HLA-A*11:01 = target: HLA-A*11:01
HLA-A*33:01 = target: HLA-A*33:01
HLA-A*03:01 = target: HLA-A*03:01
HLA-A*31:01 = target: HLA-A*31:01
HLA-A*02:06 = target: HLA-A*02:06
[1] = source organism: Vaccinia virus WR
[2] = source organism: Dengue virus 2 Jamaica/1409/1983
[3] = source organism: SARS coronavirus Tor2
[4] = source organism: Dengue virus 1 Nauru/West Pac/1974
[5] = source organism: Dengue virus 1 Brazil/97-11/1997
[6] = source organism: Mammarenavirus guanaritoense
[7] = source organism: Lymphocytic choriomeningitis virus (strain Traub)
[8] = source organism: Dengue virus 3 Sri Lanka/1266/2000
[9] = source organism: Dengue virus 4 Philippines/H241/1956
[10] = source organism: Vaccinia virus Copenhagen
[11] = source organism: Lassa virus Josiah
[12] = source organism: Lymphocytic choriomeningitis virus (strain Armstrong)
[13] = source organism: Dengue virus 2 16681-PDK53
[14] = source organism: Dengue virus 3 Martinique/1243/1999

## ILHVDNHIGI
HLA-A*02:03; source organism: Homo sapiens
  Kd: 11.1 nM

## SMFWDGMDY
HLA-A*68:01; [1]
  Kd: 11.9 nM
HLA-A*11:01; [1]
  Kd: 0.823 nM
HLA-A*33:01; [1]
  Kd: 10400 nM
HLA-A*03:01; [1]
  Kd: 1.02 nM
HLA-A*31:01; [1]
  Kd: 124 nM

## ELGKKKTPR
HLA-A*33:01; [2]
  Kd: 116 nM

## WVFGSTMNNK
HLA-A*68:01; [3]
  Kd: 3.24 nM
HLA-A*11:01; [3]
  Kd: 208 nM
HLA-A*33:01; [3]
  Kd: ≥ 70000 nM
HLA-A*03:01; [3]
  Kd: 197 nM
HLA-A*31:01; [3]
  Kd: 5950 nM

## YLWEVKKQR
HLA-A*33:01; [2]
  Kd: 65.4 nM

## TLVPQEHYVR
HLA-A*68:01; [3]
  Kd: 445 nM
HLA-A*11:01; [3]
  Kd: 436 nM
HLA-A*33:01; [3]
  Kd: 1910 nM
HLA-A*03:01; [3]
  Kd: 130 nM
HLA-A*31:01; [3]
  Kd: 989 nM

## AQYKCVTIKY
HLA-A*68:01; [1]
  Kd: 967 nM
HLA-A*11:01; [1]
  Kd: 80.1 nM
HLA-A*33:01; [1]
  Kd: ≥ 21900 nM
HLA-A*03:01; [1]
  Kd: 220 nM
HLA-A*31:01; [1]
  Kd: 2140 nM

## VMHINSPFK
HLA-A*68:01; [1]
  Kd: 79.3 nM
HLA-A*11:01; [1]
  Kd: 0.224 nM
HLA-A*33:01; [1]
  Kd: 10700 nM
HLA-A*03:01; [1]
  Kd: 1.8 nM
HLA-A*31:01; [1]
  Kd: 19.9 nM

## TTIITPMMR
HLA-A*68:01; [4]
  Kd: 4.15 nM
HLA-A*11:01; [4]
  Kd: 215 nM
HLA-A*33:01; [4]
  Kd: 52.9 nM

## SINVTIPEQY
HLA-A*68:01; [1]
  Kd: 5200 nM
HLA-A*11:01; [1]
  Kd: 783 nM
HLA-A*33:01; [1]
  Kd: 12800 nM
HLA-A*03:01; [1]
  Kd: 19100 nM
HLA-A*31:01; [1]
  Kd: 8190 nM

## VSQLAKRFSK
HLA-A*11:01; [4]
  Kd: 126 nM

## NMTSRMLLNR
HLA-A*68:01; [5]
  Kd: 470 nM
HLA-A*33:01; [5]
  Kd: 73.7 nM
HLA-A*31:01; [5]
  Kd: 12000 nM

## RSCSFKVGHH
HLA-A*68:01; [6]
  Kd: ≥ 36600 nM
HLA-A*33:01; [6]
  Kd: ≥ 70000 nM
HLA-A*03:01; [6]
  Kd: 11400 nM
HLA-A*31:01; [6]
  Kd: 477 nM

## HATMLDVDLR
HLA-A*68:01; source organism: Dengue virus 1 Singapore/S275/1990
  Kd: 90.6 nM

## HIKTIAVSVY
HLA-A*68:01; [1]
  Kd: 5820 nM
HLA-A*11:01; [1]
  Kd: 8240 nM
HLA-A*33:01; [1]
  Kd: 13800 nM
HLA-A*03:01; [1]
  Kd: 257 nM
HLA-A*31:01; [1]
  Kd: 914 nM

## KCHDHYLCR
HLA-A*68:01; [7]
  Kd: ≥ 48000 nM
HLA-A*11:01; [7]
  Kd: 3270 nM
HLA-A*33:01; [7]
  Kd: 1350 nM
HLA-A*03:01; [7]
  Kd: 7630 nM
HLA-A*31:01; [7]
  Kd: 109 nM

## DTQMRTPLHK
HLA-A*68:01; [1]
  Kd: 1480 nM
HLA-A*11:01; [1]
  Kd: 78 nM
HLA-A*33:01; [1]
  Kd: 12500 nM
HLA-A*03:01; [1]
  Kd: 4160 nM
HLA-A*31:01; [1]
  Kd: ≥ 52100 nM

## ALGGSIAVK
HLA-A*68:01; [3]
  Kd: 11200 nM
HLA-A*11:01; [3]
  Kd: 171 nM
HLA-A*33:01; [3]
  Kd: ≥ 77700 nM
HLA-A*03:01; [3]
  Kd: 15.2 nM
HLA-A*31:01; [3]
  Kd: 12500 nM

## IFTLTVAWR
HLA-A*33:01; [8]
  Kd: 5.89 nM
HLA-A*31:01; [8]
  Kd: 163 nM

## VQIDRLITGR
HLA-A*68:01; [3]
  Kd: 1030 nM
HLA-A*11:01; [3]
  Kd: 3020 nM
HLA-A*33:01; [3]
  Kd: 912 nM
HLA-A*03:01; [3]
  Kd: 1990 nM
HLA-A*31:01; [3]
  Kd: 43.6 nM

## IVSSVNMVSR
HLA-A*68:01; [8]
  Kd: 9.22 nM
HLA-A*33:01; [8]
  Kd: 346 nM
HLA-A*31:01; [8]
  Kd: 82.7 nM

## SISSVLTILY
HLA-A*68:01; [1]
  Kd: 907 nM
HLA-A*11:01; [1]
  Kd: 107 nM
HLA-A*33:01; [1]
  Kd: 2240 nM
HLA-A*03:01; [1]
  Kd: 206 nM
HLA-A*31:01; [1]
  Kd: 9230 nM

## LALSLTFIR
HLA-A*33:01; [9]
  Kd: 6.39 nM
HLA-A*31:01; [9]
  Kd: 97.1 nM

## ITYKCPLLR
HLA-A*68:01; [2]
  Kd: 59.4 nM
HLA-A*11:01; [2]
  Kd: 63.9 nM
HLA-A*33:01; [2]
  Kd: 200 nM
HLA-A*03:01; [2]
  Kd: 16.1 nM
HLA-A*31:01; [2]
  Kd: 11.6 nM

## STSPTRTWK
HLA-A*68:01; [10]
  Kd: 5.87 nM
HLA-A*11:01; [10]
  Kd: 0.803 nM
HLA-A*33:01; [10]
  Kd: 6520 nM
HLA-A*03:01; [10]
  Kd: 6.72 nM
HLA-A*31:01; [10]
  Kd: 36.2 nM

## GSYIALDSGR
HLA-A*68:01; [11]
  Kd: 276 nM
HLA-A*11:01; [11]
  Kd: 150 nM
HLA-A*33:01; [11]
  Kd: 1160 nM
HLA-A*03:01; [11]
  Kd: 4230 nM
HLA-A*31:01; [11]
  Kd: 78.3 nM

## GICSCGAFK
HLA-A*11:01; [12]
  Kd: 54.6 nM

## LSIVVDINK
HLA-A*68:01; [1]
  Kd: 15.1 nM
HLA-A*11:01; [1]
  Kd: 23.8 nM
HLA-A*33:01; [1]
  Kd: ≥ 77700 nM
HLA-A*03:01; [1]
  Kd: 5120 nM
HLA-A*31:01; [1]
  Kd: 4130 nM

## SLLSLREVK
HLA-A*68:01; [3]
  Kd: 1190 nM
HLA-A*11:01; [3]
  Kd: 21.2 nM
HLA-A*33:01; [3]
  Kd: 8140 nM
HLA-A*03:01; [3]
  Kd: 249 nM
HLA-A*31:01; [3]
  Kd: 187 nM

## DVPSPAAAQK
HLA-A*68:01; [9]
  Kd: 192 nM

## ILKEPVHGV
HLA-A*02:03; source organism: Human immunodeficiency virus type 1 BH10
  Kd: 6.3 nM

## MTLMKGASKR
HLA-A*68:01; [9]
  Kd: 94.5 nM
HLA-A*33:01; [9]
  Kd: 68.2 nM
HLA-A*31:01; [9]
  Kd: 78.5 nM

## TLMSIVSSLH
HLA-A*33:01; [12]
  Kd: ≥ 70000 nM

## DISEMGANFR
HLA-A*68:01; [5]
  Kd: 12.9 nM
HLA-A*33:01; [5]
  Kd: 231 nM

## LLILCTSQI
HLA-A*02:03; [5]
  Kd: 8.71 nM

## FTTNIWLKLK
HLA-A*68:01; [13]
  Kd: 12.5 nM

## IMKDGRKLV
HLA-A*02:03; [14]
  Kd: 558 nM

## LTALNDMGK
HLA-A*68:01; [2]
  Kd: 528 nM
HLA-A*11:01; [2]
  Kd: 1450 nM

## TLWEGSPGK
HLA-A*03:01; [5]
  Kd: 328 nM

## LMYFHRRDLR
HLA-A*68:01; [2]
  Kd: 207 nM
HLA-A*33:01; [2]
  Kd: 17.3 nM
HLA-A*03:01; [2]
  Kd: 142 nM
HLA-A*31:01; [2]
  Kd: 0.556 nM

## LLKTALLIV
HLA-A*02:03; [14]
  Kd: 10.6 nM

## KNGAIKVLR
HLA-A*31:01; [5]
  Kd: ≥ 51000 nM

## KQLGQIMLL
HLA-A*02:06; [5]
  Kd: 5.76 nM

## ATLTEGVYR
HLA-A*31:01; [9]
  Kd: 7.26 nM

## TMWHVTRGSV
HLA-A*02:03; [9]
  Kd: 24.3 nM

## CTGSFKLEK
HLA-A*11:01; [5]
  Kd: 39.8 nM

## AVVLMGLDK
HLA-A*11:01; [14]
  Kd: 2470 nM

## IMAYVNQAHH
HLA-A*68:01; [6]
  Kd: 97 nM
HLA-A*33:01; [6]
  Kd: 3920 nM
HLA-A*03:01; [6]
  Kd: 4010 nM
HLA-A*31:01; [6]
  Kd: 1120 nM

## LLNRFTMAHR
HLA-A*31:01; [5]
  Kd: ≥ 48500 nM

## ATTIITPMMR
HLA-A*68:01; [4]
  Kd: 386 nM
HLA-A*11:01; [4]
  Kd: 162 nM
HLA-A*31:01; [4]
  Kd: ≥ 70000 nM

## ETTKHAVSR
HLA-A*68:01; [5]
  Kd: 10.3 nM
HLA-A*33:01; [5]
  Kd: 10.6 nM

## NIHTAITQVR
HLA-A*68:01; [9]
  Kd: 167 nM

## VTNPAVLRK
HLA-A*11:01; [5]
  Kd: 16.5 nM
HLA-A*03:01; [5]
  Kd: 4.28 nM

## LQMENKAWL
HLA-A*02:06; [13]
  Kd: 22.8 nM

## LTIMDLHPGA
HLA-A*02:06; [2]
  Kd: 105 nM
